Laboratory results taken from US20110268748A1 (UNIVERSITY OF ROCHESTER, published 2011).

Tests used:
[1] = molecular target: T1, Gal4NLBD589A (Gal4 DNA-binding domain fused to the Nurr1 ligand binding domain with alanine for aspartic acid … (UniProt P04386 1-147)); assay: yeast two-hybrid, empty prey vector control, growth on -Leu/-Trp/-His (X-gal staining: White)
T1 construct: also called pPC97-NLBD589A; pPC97NLBD589A

[2] = molecular target: T2, VP16-NuIP (HSV VP16 activation domain fused to full-length NuIP) (mouse, UniProt Q8BPQ7 1-1093); assay: mammalian two-hybrid, luciferase reporter, MN9D cells
T2 construct: also called pVP16NuIP
T2 sequence: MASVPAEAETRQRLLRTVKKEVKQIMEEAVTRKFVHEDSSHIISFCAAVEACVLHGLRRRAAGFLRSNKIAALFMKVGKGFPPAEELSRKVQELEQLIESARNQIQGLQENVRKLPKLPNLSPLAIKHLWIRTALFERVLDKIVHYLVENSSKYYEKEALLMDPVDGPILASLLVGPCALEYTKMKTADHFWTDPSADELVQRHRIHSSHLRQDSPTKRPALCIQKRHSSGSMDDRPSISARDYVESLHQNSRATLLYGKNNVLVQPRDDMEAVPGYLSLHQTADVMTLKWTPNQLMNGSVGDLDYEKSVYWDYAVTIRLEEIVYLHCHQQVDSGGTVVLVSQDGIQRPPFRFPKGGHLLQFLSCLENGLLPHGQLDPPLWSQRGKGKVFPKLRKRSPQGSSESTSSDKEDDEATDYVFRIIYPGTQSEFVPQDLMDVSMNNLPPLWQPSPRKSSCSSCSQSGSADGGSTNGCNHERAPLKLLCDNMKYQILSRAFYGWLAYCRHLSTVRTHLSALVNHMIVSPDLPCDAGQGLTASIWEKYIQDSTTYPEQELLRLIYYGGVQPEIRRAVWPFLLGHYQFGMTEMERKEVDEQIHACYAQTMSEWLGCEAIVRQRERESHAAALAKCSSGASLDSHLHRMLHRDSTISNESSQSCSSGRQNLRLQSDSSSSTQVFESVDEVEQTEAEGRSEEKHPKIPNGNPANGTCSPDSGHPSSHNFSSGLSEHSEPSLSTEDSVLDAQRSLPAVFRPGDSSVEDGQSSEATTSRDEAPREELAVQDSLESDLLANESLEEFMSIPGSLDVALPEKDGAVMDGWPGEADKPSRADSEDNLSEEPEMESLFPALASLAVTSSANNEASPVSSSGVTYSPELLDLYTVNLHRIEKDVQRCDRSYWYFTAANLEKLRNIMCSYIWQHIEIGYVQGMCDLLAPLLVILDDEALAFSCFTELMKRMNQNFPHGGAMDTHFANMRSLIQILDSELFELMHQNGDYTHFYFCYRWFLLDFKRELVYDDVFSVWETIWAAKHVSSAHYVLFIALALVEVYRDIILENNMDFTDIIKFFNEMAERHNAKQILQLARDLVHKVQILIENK

[3] = molecular target: T3, pPC86-RXR (Gal4 activation domain fused to full-length human RXRα) (human, UniProt P19793 1-462); assay: yeast two-hybrid, growth on -Leu/-Trp/-His (X-gal staining: White)
T3 construct: also called pPC89RXR
T3 sequence (looked up): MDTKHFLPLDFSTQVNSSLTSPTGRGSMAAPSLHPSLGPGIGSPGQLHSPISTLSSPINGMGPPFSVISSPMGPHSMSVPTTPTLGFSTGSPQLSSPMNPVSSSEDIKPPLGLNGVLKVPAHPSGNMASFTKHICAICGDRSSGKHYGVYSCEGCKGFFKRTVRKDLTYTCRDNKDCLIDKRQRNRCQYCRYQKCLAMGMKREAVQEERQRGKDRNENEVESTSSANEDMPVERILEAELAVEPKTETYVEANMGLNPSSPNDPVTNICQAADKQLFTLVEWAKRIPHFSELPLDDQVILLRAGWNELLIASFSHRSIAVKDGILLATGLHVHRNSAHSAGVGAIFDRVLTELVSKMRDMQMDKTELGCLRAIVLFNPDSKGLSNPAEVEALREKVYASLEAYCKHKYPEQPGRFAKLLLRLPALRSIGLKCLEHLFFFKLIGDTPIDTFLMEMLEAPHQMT

B1: Gal4 activation domain alone (empty pPC86 vector) (other, UniProt P04386 768-881, looked up)
chain: ANFNQSGNIADSSLSFTFTNSSNGPNLITTQTNSQALSQPIASSNVHDNFMNNEITASKIDDGNNSKPLSPGWTDQTAYNAFGITTGMFNTTTMDDVYNYLFDDEDTPPNPKKE
notes: Empty prey vector control in yeast two-hybrid; also called pPC89
**Q.** Does B1 bind [1]?
**A.** no binding

B2: Gal4NLBDΔ583 (Gal4 DNA-binding domain fused to the Nurr1 ligand binding domain with the AF2 domain deleted) (other)
chain: DPSPPSPPVSLISALVRAHVDSNPAMTSLDYSRFQANPDYQMSGDDTQHIQQFYDLLTGSMEIIRGWAEKIPGFADLPKADQDLLFESAFLELFVLRLAYRSNPVEGKLIFCNGVVLHRLQCVRGFGEWIDSIVEFSSNLQNMNIDISAFSCIAALAMVTERHGLKEPKRVEELQNKIVNCLKDHVTFNNGGLNRPNYLSKLLGKLPELRTLCTQGLQRIFYLKLEDLVP
notes: Used under the same name as yeast bait (pPC97) and in the mammalian two-hybrid assay in MN9D cells; also called Gal4NLDBA583; Gal4NLBDp583
**Q.** Does B2 bind [2]?
**A.** binds

**Q.** Does B2 bind [3]?
**A.** no binding
